{
  "source": "patent US20040157289",
  "key": {"[1]": {"experiment": "Superose gel exclusion chromatography, self-association"}, "[2]": {"experiment": "aggregate size given for comparison with the gel exclusion result, self-association"}},
  "data": [
    {"substance": "alpha A crystallin Δ51+ construct", "values": [
      {"measurement": "aggregate size", "setting": "[1]", "value": "calculated to be 60,000 daltons, which corresponds in size to a tetramer"}
    ]},
    {"substance": "wild type α-crystallin (alpha A crystallin)", "values": [
      {"measurement": "aggregate size", "setting": "[2]", "value": "about 800,000 daltons, depending on solution conditions"}
    ]}
  ]
}
